Here are results for one molecule from paper PMC8387964 (2021).

The target of experiment [1] is Rac1 (Homo sapiens, UniProt P63000, Rac1 acetylated at K166).
In experiment [2] the target is Rac1 (Homo sapiens, UniProt P63000).

B1: p67phox (protein)
chain: MSLVEAISLWNEGVLAADKKDWKGALDAFSAVQDPHSRICFNIGCMYTILKNMTEAEKAFTRSINRDKHLAVAYFQRGMLYYQTEKYDLAIKDLKEALIQLRGNQLIDYKILGLQFKLFACEVLYNIAFMYAKKEEWKKAEEQLALATSMKSEPRHSKIDKAMECVWKQKLYEPVVIPVGKLFRPNERQVAQLAKKDYLGKATVVASVVDQDSFSGFAPLQPQAAEPPPRPKTPEIFRALEGEAHRVLFGFVPETKEELQVMPGNIVFVLKKGNDNWATVMFNGQKGLVPCNYLEPVELRIHPQQQPQEESSPQSDIPAPPSSKAPGRPQLSPGQKQKEEPKEVKLSVPMPYTLKVHYKYTVVMKTQPGLPYSQVRDMVSKKLELRLEHTKLSYRPRDSNELVPLSEDSMKDAWGQVKNYCLTLWCENTVGDQGFPDEPKESEKADANNQTTEPQLKKGSQVEALFSYEATQPEDLEFQEGDIILVLSKVNEEWLEGECKGKVGIFPKVFVEDCATTDLESTRREV
With B1, the values for the Kd with Rac1 [1] and in the experiment with Rac1 [2] were 109 nM and 2340 nM, respectively.
